Source: article doi:10.1101/2025.08.25.672131, “A basic leucine zipper uses a dimer pathway to locate its targets in DNA mixtures”

T1: Jun bZIP-ΔLZ (human, UniProt P05412 246-284)
T1 chain: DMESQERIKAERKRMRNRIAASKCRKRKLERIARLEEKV

T2: CREB-bZIP-ΔLZ (human, UniProt P16220-1 277-315, C300S;C310S)
T2 chain: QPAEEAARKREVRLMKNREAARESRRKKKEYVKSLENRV

B1: Alexa Fluor 488 target for Jun, JunD, Fos (dsDNA)
DNA 1: GGATGAGTCATTGG
DNA 2: CCAATGACTCATCC
B2: Alexa Fluor 488-Comp (dsDNA)
DNA 1: GGCTAAAGCATTCT
DNA 2: AGAATGCTTTAGCC

What was measured:
Jun bZIP-ΔLZ = molecular target: T1, Jun bZIP-ΔLZ; experiment: fluorescence anisotropy; monomer; Stopped-flow at 25 C; assay buffer not stated in the material (protein storage: 10 mM MES pH 6.5 or, for the forced-monomer bZIP-ΔLZ prep, 10 mM HEPES pH 7.4, with 150 mM NaCl, 10 mM MgCl2; 0.05% Tween-20 in the MES buffer); details: protein: recombinant; tags: N-terminal G left after TEV cleavage; label: 5' Alexa Fluor 488; blunt
CREB-bZIP-ΔLZ = molecular target: T2, CREB-bZIP-ΔLZ; experiment: as above; details: protein: recombinant; tags: N-terminal G left after TEV cleavage; label: 5' Alexa Fluor 488; blunt

| Binder | Kd (Jun bZIP-ΔLZ) [µM] | Kd (CREB-bZIP-ΔLZ) [µM] |
| --- | --- | --- |
| B1 | 0.22 ± 0.03 |  |
| B2 |  | 440 ± 30 |
